Test results reported in publication PMC9019756.

Target: T1, His6-PhoP (Actinosynnema pretiosum X47 (derived from A. pretiosum subsp. auranticum ATCC 31565)) (UniProt A0A290ZEW1)
T1 sequence: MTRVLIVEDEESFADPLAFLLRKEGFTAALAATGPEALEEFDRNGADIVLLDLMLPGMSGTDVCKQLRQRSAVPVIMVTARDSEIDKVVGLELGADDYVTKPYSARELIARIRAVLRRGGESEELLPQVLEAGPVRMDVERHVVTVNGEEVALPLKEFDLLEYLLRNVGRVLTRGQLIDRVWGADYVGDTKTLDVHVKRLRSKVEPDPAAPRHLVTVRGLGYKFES
Test: EMSA
Conditions: EMSA: 100 fmol biotin probe, binding buffer (composition not given), poly(dI-dC), 20-30 min at room temperature, 8% native PAGE; protein dialyzed in 50 mM …

| Sequence | binding |
| --- | --- |
| GTGACTGGAGTTCCTTACCCCGATCCGGTGACCGGGGCCGGCGGCCCAGCCCCGGTCCCGCGATCCGCGAAAGCAGCCGCGAACCGCCGCTGACCTGGTCGAACGGCCCGCTGGAAGATCGCTTGAGCACCGCCGACGACGAGCGTCGACGCCCCCGCCCCGCAGCGGGCGGGGGCAGTCCCCCGTTGGAGTGCTCAGCTCCCCCCGGCGACGGCCGTACTAGGCGGCGGTCGTGTAGGGAAAGA (double strand) [fliM promoter probe] | no binding |
| GTGACTGGAGTTCCTTTTCGCGCAACAGCCGGTACCGGGTTCAGGTTAAACCGAGCAAGATAGCCCTAGAGGGGACACCAGCGGATACAGAGAGCAACAAAACAGGCACGTACAGAAGTCTTGTTAGCCCAGAAGGGTGATAAACGCCCCGATGTCGAGCGTTCCTCGCCACAGACACGTCACATCTGGCGAACTCGGTCGTTTGCTAGGCCGGGAAGGGAGAAGAGGGTAACGACGAGTCGTGTAGGGAAAGA (double strand) [ssgB promoter probe] | binds |
| TCTTTCCCTACACGACCGGCTTCCGTCCTTGGATGTCGGGCATCGGGCCCGTCCGTGGGTCCGTGGCGTTACAAACGGCAGTGCGCCTTCACTCCTGAGGGGGAACGAAGGGCGGCCAGGGTGGAGAAGGCCCGGCCGCCCGTCACCCGTAAGGAACTCCAGTCAC (double strand) [swrD promoter probe] | no binding |
